Assay results published in paper PMC6011117, “Comparative Evaluation of Radioiodine and Technetium-Labeled DARPin 9_29 for Radionuclide Molecular Imaging of HER2 Expression in Malignant Tumors” (Contrast Media & Molecular Imaging, 2018).
Blank lines part the entries; values can stand above or below the binder they belong to.

Biological target: T1, human epidermal growth factor receptor 2 (HER2) (human (endogenous in SKOV-3, BT474, …, UniProt P04626 23-1255))
T1 construct: human epidermal growth factor receptor 2 (HER2), endogenous on the cell lines SKOV-3, BT474 and DU145; also called HER2 receptor; source: endogenous, on living SKOV-3, BT474 and DU145 cells
Assay: radioligand binding; LigandTracer, real-time association and dissociation on living SKOV-3 cells at room temperature; radioconjugate at 1, 4 and 8 nM; TraceDrawer fit with a 1:2 binding model
Details: one partner purified

KD of the strongest interaction (1:2 binding model): 0.362 ± 0.13 nM | KD of the weaker interaction (1:2 binding model): 7.7 ± 2.8 nM
B1: [125I]I-DARPin 9_29 (designed binder)
chain: MDLGKKLLEAARAGQDDEVRILMANGADVNAHDFYGITPLHLAANFGHLEIVEVLLKHGADVNAFDYDNTPLHLAADAGHLEIVEVLLKYGADVNASDRDGHTPLHLAAREGHLEIVEVLLKNGADVNAQDKFGKTAFDISIDNGNEDLAEILQKLAAALE
modifications: iodine-125 label attached to tyrosine (direct radioiodination)
notes: designed ankyrin repeat protein 9_29 against HER2; also called radioiodinated DARPin 9_29; source: E. coli BL21(DE3), purified (HisTrap HP, MonoQ); directly radioiodinated with chloramine T, purified on NAP-5; not shown: His6, C-terminal, kept

KD of the strongest interaction (1:2 binding model): 0.439 ± 0.156 nM | KD of the weaker interaction (1:2 binding model): 9.1 ± 2.7 nM
B2: [99mTc]Tc(CO)3-DARPin 9_29 (designed binder)
chain: B1 chain
modifications: [99mTc]Tc(CO)3 chelated by the C-terminal hexahistidine tag
notes: designed ankyrin repeat protein 9_29 against HER2; also called 99mTc(CO)3-DARPin 9_29; [99mTc]Tc-DARPin 9_29; source: E. coli BL21(DE3), purified (HisTrap HP, MonoQ); labelled with technetium-99m tricarbonyl, purified on NAP-5; not shown: His6, C-terminal, kept
